Reference: patent publication US20260109776A1 (Amgen, published 2026)

T1: cynoCD40(1-193) (cynomolgus monkey, UniProt P25942 21-193 (human entry))
T1 construct: also called soluble cynomolgus monkey CD40
T1 chain: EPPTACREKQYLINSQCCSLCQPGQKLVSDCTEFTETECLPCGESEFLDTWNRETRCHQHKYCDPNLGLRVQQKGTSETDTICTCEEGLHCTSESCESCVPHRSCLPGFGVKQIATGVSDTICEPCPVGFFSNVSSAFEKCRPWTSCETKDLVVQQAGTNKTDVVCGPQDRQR

T2: cynoMSLN(296-598) (cynomolgus monkey)
T2 chain: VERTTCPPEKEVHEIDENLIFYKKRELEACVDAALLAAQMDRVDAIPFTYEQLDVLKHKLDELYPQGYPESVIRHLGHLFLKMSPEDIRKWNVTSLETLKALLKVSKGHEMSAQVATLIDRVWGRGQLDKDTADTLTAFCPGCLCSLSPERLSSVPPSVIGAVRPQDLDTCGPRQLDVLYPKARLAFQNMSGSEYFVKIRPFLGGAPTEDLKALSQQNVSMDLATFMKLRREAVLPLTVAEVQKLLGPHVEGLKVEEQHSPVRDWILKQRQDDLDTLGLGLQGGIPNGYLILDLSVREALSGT

T3: cynoCD40(1-193) (cynomolgus monkey, UniProt P25942 21-193 (human entry))
T3 construct: Soluble form used in Octet; also called cynomolgus monkey CD40
T3 chain: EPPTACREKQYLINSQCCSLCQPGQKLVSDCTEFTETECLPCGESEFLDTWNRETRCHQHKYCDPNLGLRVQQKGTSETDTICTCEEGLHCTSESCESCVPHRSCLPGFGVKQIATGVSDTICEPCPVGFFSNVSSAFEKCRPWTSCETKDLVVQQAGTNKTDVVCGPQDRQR

B1: 6053-2 (bispecific antibody)
heavy: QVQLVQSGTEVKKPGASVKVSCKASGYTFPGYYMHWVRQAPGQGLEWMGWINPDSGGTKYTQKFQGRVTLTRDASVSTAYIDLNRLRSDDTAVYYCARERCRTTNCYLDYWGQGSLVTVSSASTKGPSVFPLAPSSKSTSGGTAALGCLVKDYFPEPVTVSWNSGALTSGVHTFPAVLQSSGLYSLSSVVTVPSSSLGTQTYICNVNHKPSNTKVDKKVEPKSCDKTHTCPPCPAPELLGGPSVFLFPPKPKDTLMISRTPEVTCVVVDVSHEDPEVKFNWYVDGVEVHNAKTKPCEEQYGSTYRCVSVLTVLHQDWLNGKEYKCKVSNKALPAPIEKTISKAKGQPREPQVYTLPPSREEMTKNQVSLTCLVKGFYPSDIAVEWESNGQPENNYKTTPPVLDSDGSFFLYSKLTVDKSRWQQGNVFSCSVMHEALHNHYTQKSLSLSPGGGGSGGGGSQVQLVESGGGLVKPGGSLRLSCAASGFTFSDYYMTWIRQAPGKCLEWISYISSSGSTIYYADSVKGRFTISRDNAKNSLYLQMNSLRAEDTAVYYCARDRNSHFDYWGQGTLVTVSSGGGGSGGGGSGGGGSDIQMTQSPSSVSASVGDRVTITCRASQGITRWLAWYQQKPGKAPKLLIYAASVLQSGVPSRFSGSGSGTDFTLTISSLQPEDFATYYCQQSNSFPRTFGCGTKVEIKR
light: QSALTQPASVSGSPGQSITISCTGTSSDVGNYNLVSWYQQHPGKAPKLMIYEVNRRPSGVSNRFSGSKSGNTASLTISGLQAEDEAEYYCCSYAGRDTFVVFGGGTKLTVLGQPKAAPSVTLFPPSSEELQANKATLVCLISDFYPGAVTVAWKADSSPVKAGVETTTPSKQSNNKYAASSYLSLTPEQWKSHRSYSCQVTHEGSTVEKTVAPTECS
notes: IgG-scFv: IgG (CD40) 39C2, scFv (MSLN) 4H6
B2: 6023-2 (bispecific antibody)
heavy: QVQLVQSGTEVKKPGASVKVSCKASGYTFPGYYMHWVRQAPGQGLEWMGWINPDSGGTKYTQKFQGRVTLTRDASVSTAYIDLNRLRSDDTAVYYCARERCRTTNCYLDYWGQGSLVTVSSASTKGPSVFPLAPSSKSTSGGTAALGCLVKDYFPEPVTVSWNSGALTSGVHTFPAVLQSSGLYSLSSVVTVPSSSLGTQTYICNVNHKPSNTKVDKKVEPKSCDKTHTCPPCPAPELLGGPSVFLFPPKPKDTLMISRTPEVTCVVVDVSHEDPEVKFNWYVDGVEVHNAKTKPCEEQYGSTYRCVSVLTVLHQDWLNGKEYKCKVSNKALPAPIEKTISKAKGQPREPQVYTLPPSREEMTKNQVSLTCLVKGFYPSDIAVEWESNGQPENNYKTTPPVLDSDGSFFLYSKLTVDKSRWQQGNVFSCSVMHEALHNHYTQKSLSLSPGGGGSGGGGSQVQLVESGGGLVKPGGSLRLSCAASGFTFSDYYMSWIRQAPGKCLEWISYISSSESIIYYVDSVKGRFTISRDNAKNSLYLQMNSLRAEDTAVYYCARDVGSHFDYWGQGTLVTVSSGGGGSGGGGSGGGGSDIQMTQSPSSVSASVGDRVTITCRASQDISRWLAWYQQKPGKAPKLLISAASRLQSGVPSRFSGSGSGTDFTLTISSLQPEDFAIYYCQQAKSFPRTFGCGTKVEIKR
light: QSALTQPASVSGSPGQSITISCTGTSSDVGNYNLVSWYQQHPGKAPKLMIYEVNRRPSGVSNRFSGSKSGNTASLTISGLQAEDEAEYYCCSYAGRDTFVVFGGGTKLTVLGQPKAAPSVTLFPPSSEELQANKATLVCLISDFYPGAVTVAWKADSSPVKAGVETTTPSKQSNNKYAASSYLSLTPEQWKSHRSYSCQVTHEGSTVEKTVAPTECS
notes: IgG-scFv: IgG (CD40) 39C2, scFv (MSLN) 6F4
B3: 6043-2 (bispecific antibody)
heavy: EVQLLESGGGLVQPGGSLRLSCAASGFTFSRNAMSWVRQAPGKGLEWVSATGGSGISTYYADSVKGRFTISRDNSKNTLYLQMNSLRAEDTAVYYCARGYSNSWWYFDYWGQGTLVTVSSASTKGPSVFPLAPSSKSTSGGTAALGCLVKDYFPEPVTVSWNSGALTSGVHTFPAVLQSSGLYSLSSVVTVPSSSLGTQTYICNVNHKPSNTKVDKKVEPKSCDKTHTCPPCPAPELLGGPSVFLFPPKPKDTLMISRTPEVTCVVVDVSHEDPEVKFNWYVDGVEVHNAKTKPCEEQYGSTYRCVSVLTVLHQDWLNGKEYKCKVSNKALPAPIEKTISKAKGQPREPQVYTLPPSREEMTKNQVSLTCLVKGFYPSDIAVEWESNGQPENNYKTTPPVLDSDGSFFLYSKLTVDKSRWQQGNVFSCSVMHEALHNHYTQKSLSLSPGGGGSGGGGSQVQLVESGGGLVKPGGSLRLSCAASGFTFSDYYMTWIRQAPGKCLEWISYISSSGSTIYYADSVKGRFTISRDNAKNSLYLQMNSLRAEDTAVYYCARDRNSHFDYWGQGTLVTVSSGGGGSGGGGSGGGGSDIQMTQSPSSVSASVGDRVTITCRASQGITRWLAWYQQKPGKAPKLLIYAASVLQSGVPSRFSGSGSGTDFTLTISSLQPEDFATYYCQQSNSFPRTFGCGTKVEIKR
light: QSALTQPASVSGSPGQSITISCTGTSSDVGNYNLVSWYQQHPGKAPKLMIFEVNQRPSGVSNRFSGSKSGTTASLTISGLQAADEADYFCCSYTTSSTYVIFGGGTKLTVLGQPKAAPSVTLFPPSSEELQANKATLVCLISDFYPGAVTVAWKADSSPVKAGVETTTPSKQSNNKYAASSYLSLTPEQWKSHRSYSCQVTHEGSTVEKTVAPTECS
notes: IgG-scFv: IgG (CD40) 30A12, scFv (MSLN) 4H6
B4: 6055-2 (bispecific antibody)
heavy: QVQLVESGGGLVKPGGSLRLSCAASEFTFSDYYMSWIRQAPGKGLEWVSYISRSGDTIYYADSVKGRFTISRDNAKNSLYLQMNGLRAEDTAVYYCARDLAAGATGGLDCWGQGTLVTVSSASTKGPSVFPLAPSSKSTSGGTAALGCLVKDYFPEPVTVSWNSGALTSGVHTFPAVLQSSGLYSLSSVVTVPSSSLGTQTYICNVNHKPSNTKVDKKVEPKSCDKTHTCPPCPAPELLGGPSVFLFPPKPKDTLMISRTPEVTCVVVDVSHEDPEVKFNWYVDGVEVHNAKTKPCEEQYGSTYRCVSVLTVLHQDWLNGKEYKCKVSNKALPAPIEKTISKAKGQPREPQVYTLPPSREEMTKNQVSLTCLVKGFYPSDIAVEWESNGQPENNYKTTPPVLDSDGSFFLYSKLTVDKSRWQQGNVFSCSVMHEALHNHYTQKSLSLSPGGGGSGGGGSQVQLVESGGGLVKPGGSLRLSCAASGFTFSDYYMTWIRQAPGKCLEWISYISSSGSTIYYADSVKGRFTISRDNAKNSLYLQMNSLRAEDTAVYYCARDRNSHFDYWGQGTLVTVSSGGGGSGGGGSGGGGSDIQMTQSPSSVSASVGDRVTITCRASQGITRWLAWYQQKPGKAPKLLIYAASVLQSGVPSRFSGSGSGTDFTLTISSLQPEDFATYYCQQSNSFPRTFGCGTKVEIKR
light: SYELTQPPSVSVSPGQTASITCSGERLGNKYICWYQQKPGQSPVLVIYQDFKRPSGIPERFSGSNSGITATLTISGTQAMDEADYYCQAWDSRTVVFGGGTKLTVLGQPKAAPSVTLFPPSSEELQANKATLVCLISDFYPGAVTVAWKADSSPVKAGVETTTPSKQSNNKYAASSYLSLTPEQWKSHRSYSCQVTHEGSTVEKTVAPTECS
notes: IgG-scFv: IgG (CD40) 37A6, scFv (MSLN) 4H6
B5: 6054-2 (bispecific antibody)
heavy: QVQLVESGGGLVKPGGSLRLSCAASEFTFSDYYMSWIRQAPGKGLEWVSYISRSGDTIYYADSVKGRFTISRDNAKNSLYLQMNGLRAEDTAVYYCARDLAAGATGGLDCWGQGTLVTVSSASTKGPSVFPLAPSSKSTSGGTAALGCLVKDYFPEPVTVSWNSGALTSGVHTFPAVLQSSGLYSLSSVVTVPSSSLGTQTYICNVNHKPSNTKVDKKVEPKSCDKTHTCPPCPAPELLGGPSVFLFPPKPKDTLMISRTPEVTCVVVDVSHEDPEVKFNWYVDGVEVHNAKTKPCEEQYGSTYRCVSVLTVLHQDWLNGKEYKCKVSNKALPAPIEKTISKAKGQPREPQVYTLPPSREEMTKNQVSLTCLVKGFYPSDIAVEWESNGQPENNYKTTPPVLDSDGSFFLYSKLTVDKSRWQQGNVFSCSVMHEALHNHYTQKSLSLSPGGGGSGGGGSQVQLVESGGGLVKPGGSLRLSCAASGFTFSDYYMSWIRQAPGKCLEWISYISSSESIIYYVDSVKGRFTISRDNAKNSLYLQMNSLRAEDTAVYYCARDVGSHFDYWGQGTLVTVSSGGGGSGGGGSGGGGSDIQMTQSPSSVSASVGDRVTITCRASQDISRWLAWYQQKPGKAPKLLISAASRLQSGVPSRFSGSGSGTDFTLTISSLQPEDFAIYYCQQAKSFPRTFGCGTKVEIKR
light: SYELTQPPSVSVSPGQTASITCSGERLGNKYICWYQQKPGQSPVLVIYQDFKRPSGIPERFSGSNSGITATLTISGTQAMDEADYYCQAWDSRTVVFGGGTKLTVLGQPKAAPSVTLFPPSSEELQANKATLVCLISDFYPGAVTVAWKADSSPVKAGVETTTPSKQSNNKYAASSYLSLTPEQWKSHRSYSCQVTHEGSTVEKTVAPTECS
notes: IgG-scFv: IgG (CD40) 37A6, scFv (MSLN) 6F4
B6: 6051-2 (bispecific antibody)
heavy: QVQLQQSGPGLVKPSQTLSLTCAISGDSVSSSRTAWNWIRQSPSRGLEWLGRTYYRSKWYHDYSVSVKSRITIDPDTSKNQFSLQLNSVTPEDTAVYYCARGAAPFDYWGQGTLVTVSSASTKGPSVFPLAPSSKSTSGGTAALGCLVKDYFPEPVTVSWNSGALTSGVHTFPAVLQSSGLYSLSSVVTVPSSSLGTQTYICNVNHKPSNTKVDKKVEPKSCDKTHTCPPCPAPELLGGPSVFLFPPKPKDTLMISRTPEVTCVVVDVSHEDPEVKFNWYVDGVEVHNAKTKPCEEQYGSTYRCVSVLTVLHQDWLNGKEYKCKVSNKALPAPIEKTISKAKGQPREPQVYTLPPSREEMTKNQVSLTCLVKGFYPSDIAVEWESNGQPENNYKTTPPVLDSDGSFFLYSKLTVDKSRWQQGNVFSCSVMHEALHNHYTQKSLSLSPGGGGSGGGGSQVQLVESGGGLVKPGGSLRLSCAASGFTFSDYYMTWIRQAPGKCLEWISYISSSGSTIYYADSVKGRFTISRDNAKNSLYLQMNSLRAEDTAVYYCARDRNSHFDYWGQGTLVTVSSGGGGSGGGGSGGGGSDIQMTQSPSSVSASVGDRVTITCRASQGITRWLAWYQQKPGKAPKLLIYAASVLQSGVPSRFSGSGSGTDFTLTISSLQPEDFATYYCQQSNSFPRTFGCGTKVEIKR
light: EIVLTQSPGTLSLSPGERATLSCRASQSVSSNYLAWYQQKPGQAPRALIYAASNRAAGISDRFSGSGSGTDFTLTISRLEPEDFAVYFCQQYGSSPLTFGGGTKVEIKRTVAAPSVFIFPPSDEQLKSGTASVVCLLNNFYPREAKVQWKVDNALQSGNSQESVTEQDSKDSTYSLSSTLTLSKADYEKHKVYACEVTHQGLSSPVTKSFNRGEC
notes: IgG-scFv: IgG (CD40) 36F3, scFv (MSLN) 4H6
B7: Anti-CD40xMSLN IgG-Fab molecule 5966-1 (bispecific antibody)
chain 1: QVQLVESGGGLVKPGGSLRLSCAASGFTFSDYYMTWIRQAPGKGLEWISYISSSGSTIYYADSVKGRFTISRDNAKNSLYLQMNSLRAEDTAVYYCARDRNSHFDYWGQGTLVTVSS
chain 2: DIQMTQSPSSVSASVGDRVTITCRASQGITRWLAWYQQKPGKAPKLLIYAASVLQSGVPSRFSGSGSGTDFTLTISSLQPEDFATYYCQQSNSFPRTFGQGTKVEIK
chain 3: QVQLVESGGGLVKPGGSLRLSCAASEFTFSDYYMSWIRQAPGKGLEWVSYISRSGDTIYYADSVKGRFTISRDNAKNSLYLQMNGLRAEDTAVYYCARDLAAGATGGLDCWGQGTLVTVSS
chain 4: SYELTQPPSVSVSPGQTASITCSGERLGNKYICWYQQKPGQSPVLVIYQDFKRPSGIPERFSGSNSGITATLTISGTQAMDEADYYCQAWDSRTVVFGGGTKLTVLG
B8: Anti-CD40xMSLN IgG-Fab molecule 5991-1 (bispecific antibody)
chain 1: EVQLLESGGGLVQPGGSLRLSCAASGFTFSRNAMSWVRQAPGKGLEWVSATGGSGISTYYADSVKGRFTISRDNSKNTLYLQMNSLRAEDTAVYYCARGYSNSWWYFDYWGQGTLVTVSS
chain 2: QSALTQPASVSGSPGQSITISCTGTSSDVGNYNLVSWYQQHPGKAPKLMIFEVNQRPSGVSNRFSGSKSGTTASLTISGLQAADEADYFCCSYTTSSTYVIFGGGTKLTVLGQPKAAPSVTLFPPSSEELQANKATLVCLISDFYPGAVTVAWKADSSPVKAGVETTTPSKQSNNKYAASSYLSLTPEQWKSHRSYSCQVTHEGSTVEKTVAPTECS
chain 3: QVQLVESGGGLVKPGGSLRLSCAASGFTFSDYYMSWIRQAPGKGLEWISYISSSESIIYYVDSVKGRFTISRDNAKNSLYLQMNSLRAEDTAVYYCARDVGSHFDYWGQGTLVTVSS
chain 4: DIQMTQSPSSVSASVGDRVTITCRASQDISRWLAWYQQKPGKAPKLLISAASRLQSGVPSRFSGSGSGTDFTLTISSLQPEDFAIYYCQQAKSFPRTFGQGTKVEIKR

How the values were obtained:
human CD40 = human CD40 (human, UniProt P25942 21-277); experiment: cell-based or functional assay
huCD40(1-193) [1] = target: T4, huCD40(1-193) (human, UniProt P25942 21-193); experiment: Octet
T4 construct: also called soluble human CD40
Description: (§1) A panel of mesothelin×CD40 bispecific antibodies were generated in the IgG-scFv format (Table 13) and evaluated for binding to soluble forms of human and cynomolgus monkey CD40 and human and cynomolgus monkey mesothelin using the Octet assay (Table 14). Association rate (Kon), disassociation rate (Kdis), and equilibrium binding constant (KD) were calculated. […] These bispecific antibodies were next evaluated for their ability to induce mesothelin-dependent activation of human B cells. CHO cells expressing human mesothelin were seeded into a 96 well plate. The next day varying concentrations of the mesothelin×CD40 IgG-scFv antibodies were added to the wells along with purified human B cells and the plates were incubated for an additional 48 hours. Upregulation of CD86, a marker of CD40-mediated B cell activation, was quantified on B cells by flow cytometry.

huMSLN(296-598) [2] = target: T5, huMSLN(296-598) (human, UniProt Q13421 296-598); experiment: Octet
T5 construct: also called soluble human mesothelin
Description: as §1
T5 sequence (Q13421 other isoform, or with tags, fused parts or gaps): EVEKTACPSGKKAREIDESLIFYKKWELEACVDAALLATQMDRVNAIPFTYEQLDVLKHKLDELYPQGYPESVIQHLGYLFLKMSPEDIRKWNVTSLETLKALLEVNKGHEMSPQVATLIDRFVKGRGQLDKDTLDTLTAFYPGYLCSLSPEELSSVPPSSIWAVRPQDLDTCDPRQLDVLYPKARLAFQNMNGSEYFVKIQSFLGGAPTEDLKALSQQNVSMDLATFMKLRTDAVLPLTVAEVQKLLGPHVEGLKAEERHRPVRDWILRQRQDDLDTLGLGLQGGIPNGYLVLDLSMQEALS

cynoCD40(1-193) [3] = target: T1, cynoCD40(1-193); experiment: Octet
Description: as §1

cynoMSLN(296-598) = target: T2, cynoMSLN(296-598); experiment: Octet
Description: as §1

[4] = target: human CD40 on purified human B cells (human, UniProt P25942 21-277); experiment: cell-based or functional assay
cynoCD40(1-193) [5] = target: T3, cynoCD40(1-193); experiment: Octet, soluble antigen
huCD40(1-193) [6] = target: T6, huCD40(1-193) (human, UniProt P25942 21-193); experiment: Octet, soluble antigen
T6 construct: Soluble form used in Octet; also called human CD40; soluble human CD40

huMSLN(296-598) [7] = target: huMSLN(296-598) (human, UniProt Q13421 296-598); experiment: Octet, soluble antigen
Target sequence in this assay (Q13421 other isoform, or with tags, fused parts or gaps): as above

| Binder | EC50 (nM), CD86 upregulation on human B cells with huMSLN-CHO cells (human CD40) [nM] | Kd (huCD40(1-193) [1]) [nM] | koff (huCD40(1-193) [1]) [s⁻¹] | kon (huCD40(1-193) [1]) [M⁻¹ s⁻¹] | Kd (huMSLN(296-598) [2]) [nM] | koff (huMSLN(296-598) [2]) [s⁻¹] | kon (huMSLN(296-598) [2]) [M⁻¹ s⁻¹] | Kd (cynoCD40(1-193) [3]) [nM] | koff (cynoCD40(1-193) [3]) [s⁻¹] | kon (cynoCD40(1-193) [3]) [M⁻¹ s⁻¹] | Kd (cynoMSLN(296-598)) [nM] | koff (cynoMSLN(296-598)) [s⁻¹] | kon (cynoMSLN(296-598)) [M⁻¹ s⁻¹] | also measured |
| --- | --- | --- | --- | --- | --- | --- | --- | --- | --- | --- | --- | --- | --- | --- |
| B1 | 0.00403 | 0.9 | 0.000427 | 453000 | 0.4 | 0.000151 | 341000 | 0.5 | 0.000125 | 263000 | 4.3 | 0.00109 | 252000 |  |
| B2 | 0.00281 | 1 | 0.00044 | 431000 | 1.1 | 0.00046 | 432000 | 0.9 | 0.000413 | 447000 | 16 | 0.00535 | 326000 |  |
| B3 | 0.00776 | 1.2 | 0.000407 | 321000 | 0.1 | 3.87e-05 | 444000 | 0.9 | 0.000407 | 422000 | 4.3 | 0.0012 | 276000 |  |
| B4 | 0.00434 | 0.5 | 0.000787 | 1.46e+06 | 0.4 | 0.000211 | 552000 | 0.8 | 0.00057 | 745000 | 6.1 | 0.00109 | 179000 |  |
| B5 | 0.00333 | 0.8 | 0.000333 | 438000 | 1.3 | 0.000462 | 367000 | 1.4 | 0.0004 | 277000 | 17 | 0.00578 | 336000 |  |
| B6 | 0.00375 | 3.5 | 0.000431 | 124000 | 0.2 | 0.000135 | 599000 | 4.7 | 0.000466 | 100000 | 5.5 | 0.00105 | 191000 |  |
| B7 |  |  |  |  |  |  |  |  |  |  |  |  |  | EC50 (nM), CD86 upregulation on human B cells in the presence of CHO cells expressing human mesothelin [4]: 0.008 nM; Kd (cynoCD40(1-193) [5]): 0.9 nM; koff (cynoCD40(1-193) [5]): 0.000358 s⁻¹; kon (cynoCD40(1-193) [5]): 420000 M⁻¹ s⁻¹; Kd (huCD40(1-193) [6]): 0.7 nM; koff (huCD40(1-193) [6]): 0.000403 s⁻¹; kon (huCD40(1-193) [6]): 584000 M⁻¹ s⁻¹; Kd (huMSLN(296-598) [7]): 0.2 nM; koff (huMSLN(296-598) [7]): 0.000176 s⁻¹; kon (huMSLN(296-598) [7]): 878000 M⁻¹ s⁻¹ |
| B8 |  |  |  |  |  |  |  |  |  |  |  |  |  | EC50 (nM), CD86 upregulation on human B cells in the presence of CHO cells expressing human mesothelin [4]: 0.004 nM; Kd (cynoCD40(1-193) [5]): 0.2 nM; koff (cynoCD40(1-193) [5]): 0.000423 s⁻¹; kon (cynoCD40(1-193) [5]): 1.86e+06 M⁻¹ s⁻¹; Kd (huCD40(1-193) [6]): 0.4 nM; koff (huCD40(1-193) [6]): 0.000467 s⁻¹; kon (huCD40(1-193) [6]): 1.08e+06 M⁻¹ s⁻¹; Kd (huMSLN(296-598) [7]): 1.3 nM; koff (huMSLN(296-598) [7]): 0.000242 s⁻¹; kon (huMSLN(296-598) [7]): 181000 M⁻¹ s⁻¹ |
